Measured values as given in KR20180095349A (dated 2018).

T1: VEGF 항원 단백질 (VEGF-His) (UniProt P15692-4 27-191, limits assumed)
T1 construct: Expressed from pN293-VEGF in HEK293F cells, purified on Ni-NTA and by gel filtration; also called 혈관 내피세포 성장인자
T1 sequence: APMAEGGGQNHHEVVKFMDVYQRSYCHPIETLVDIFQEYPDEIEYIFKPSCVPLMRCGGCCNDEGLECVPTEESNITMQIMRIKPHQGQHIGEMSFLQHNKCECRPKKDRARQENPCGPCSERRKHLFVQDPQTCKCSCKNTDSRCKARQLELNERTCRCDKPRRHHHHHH


Target: T1, VEGF 항원 단백질 (VEGF-His)
Assay: ELISA on plate-coated VEGF-His (100 ng/well), IgG diluted 1/2 from 50 nM, anti-human Fc-HRP, fit in GraphPad Prism

Row | Kd [pM] | Binder
1 | 50 | 항-VEGF 단일클론 인간항체 7D2 (IgG형) (antibody, V domains shown) VH: QMQLVQSGGGLVQPGGSLRLSCAASGFTFSSFEMNWVRQAPGKGLEWLSYISNSGSTIYYADSVKGRFTISRDNAKNSLYLQMNSLRAEDTAVYYCARDSRYYGIHGMDVWGQGTTITVSS VL: DIQMTQSPSSLSASVGDRVTITCRASQTISTYLNWYQQKPGKAPKLLIYAASSLQSGVPSRFSGSGSGTDFTLTISSLQPEDFATYYCQQSSSTPRTFGQGTRLEIK
2 | 25 | 항-VEGF 단일클론 인간항체 4C4 (IgG형) (antibody, V domains shown) VH: QVQLVQSGAEVKKPGSSVKVSCKASGGTFSSSAFSWVRQAPGHGLEWMGRIIPMFDMTDYAQRFQGRLTIIADESSSTAYMELSSLRSEDTAVYYCARYKSGSYGMDVWGQGTTVTVSS VL: NFMLTQPASVSGSPGQSITISCTGSSSDVGGYNYVSWYQQHPGKAPQLIIYDVTKRPSGVSNRFSGSKSGNSASLTISGLQAEDEADYYCSSYSSSTFYVFGTGTKVTVL
3 | 60 | 항-VEGF 단일클론 인간항체 3H1 (IgG형) (antibody, V domains shown) VH: QVQLVESGGGLVKPGGSLRLSCAASGFIFSRYGMNWVRQAPGKGLEWVSSISGSSNYRYYADSVKGRFTISRDNAKNSLYLQMNSLRAEDTAVYYCARDASWGLIQGLDSWGQGTLVTVSS VL: DIQMTQSPSSLSASVGDRVTITCRASQSISSYLNWYQQEPGKAPKLLIYDASSLQSGVPSRFSGGGSGTDFTLTISSLQPEDFAAYYCQQSYSTPYTFGQGTKVDIK
